Measurements reported in patent US20220403048A1 (CANCER RESEARCH TECHNOLOGY, published 2022).
Changes are numbered by the printed parent chain.

T1: THP-1 lysate derived human trimeric ARG2 (human, UniProt P78540 23-354, limits assumed)
T1 sequence (looked up): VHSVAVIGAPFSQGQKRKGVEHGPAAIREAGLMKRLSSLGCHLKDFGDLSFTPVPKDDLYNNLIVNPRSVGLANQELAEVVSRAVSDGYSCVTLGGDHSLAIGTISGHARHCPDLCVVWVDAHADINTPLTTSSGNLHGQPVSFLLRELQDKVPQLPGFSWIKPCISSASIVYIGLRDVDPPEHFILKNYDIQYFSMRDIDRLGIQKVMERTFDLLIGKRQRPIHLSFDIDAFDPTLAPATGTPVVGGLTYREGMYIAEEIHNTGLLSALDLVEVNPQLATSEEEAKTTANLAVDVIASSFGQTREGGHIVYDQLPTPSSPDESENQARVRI

T2: recombinant human trimeric ARG2 enzyme (construct not given) (human, UniProt P78540 23-354)
T2 sequence (looked up): T1 sequence (looked up)

T3: recombinant human monomeric ARG2 (human, UniProt P78540 23-354)
T3 sequence (looked up): T1 sequence (looked up) with E253Q

T4: biotinylated recombinant human trimeric ARG1 enzyme (Avi-huARG1-His10) (human, UniProt P05089 1-322, biotinylated in HTRF and streptavidin BLI assays)
T4 construct: also called Human ARG1; recombinant ARG1
T4 sequence: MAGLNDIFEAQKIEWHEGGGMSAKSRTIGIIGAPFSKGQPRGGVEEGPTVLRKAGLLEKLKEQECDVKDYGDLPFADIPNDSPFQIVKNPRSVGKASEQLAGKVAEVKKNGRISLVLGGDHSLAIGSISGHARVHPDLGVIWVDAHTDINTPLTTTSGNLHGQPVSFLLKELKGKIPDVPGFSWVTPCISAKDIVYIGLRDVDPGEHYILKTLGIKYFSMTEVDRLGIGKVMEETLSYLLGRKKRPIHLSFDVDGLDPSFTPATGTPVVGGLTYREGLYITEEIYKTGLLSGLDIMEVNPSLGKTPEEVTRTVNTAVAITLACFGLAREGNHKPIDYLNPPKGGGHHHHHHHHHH

T5: biotinylated recombinant human trimeric ARG2 enzyme (Avi-huARG2-His10) (human, UniProt P78540 23-354, biotinylated)
T5 construct: also called avi-Arg2-His10; bio-ARG2
T5 chain: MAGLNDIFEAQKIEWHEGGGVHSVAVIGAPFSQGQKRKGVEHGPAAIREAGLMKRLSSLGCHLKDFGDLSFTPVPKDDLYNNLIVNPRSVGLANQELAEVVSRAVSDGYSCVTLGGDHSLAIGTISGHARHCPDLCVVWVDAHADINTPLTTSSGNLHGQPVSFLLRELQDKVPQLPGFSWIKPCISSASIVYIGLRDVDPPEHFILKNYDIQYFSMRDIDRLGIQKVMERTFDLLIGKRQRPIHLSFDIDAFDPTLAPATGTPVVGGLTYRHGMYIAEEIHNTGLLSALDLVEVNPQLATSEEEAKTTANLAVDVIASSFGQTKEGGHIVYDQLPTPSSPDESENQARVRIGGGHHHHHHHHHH

T6: biotinylated recombinant cynomolgus monkey trimeric ARG2 enzyme (Avi-cynoARG2-His10) (cynomolgus monkey, UniProt P78540 23-354 (human entry), biotinylated)
T6 construct: also called cynomolgus ARG2
T6 chain: T5 chain with A189P, R231Q, H273E, K325R, D333G

B1: C0021158 recombinant human IgG1 (antibody, V domains shown)
VH: EVQLLESGGGLVQPGGSLRLSCAASGFTFRYEVAAWVRQAPGKGLEWVSAISGPIPKGYYADSVKGRFTISRDNSKNTLYLQMNSLRAEDTAVYYCARLRADLGLYMDLWGRGTLVTVSS
VL: QSVLTQPPSVSAAPGQKVTISCSGSSSNIGNHYVSWYQQLPGTAPKLLIYDNSERTAGVPDRFSGSKSGTSATLGITGLQTGDEADYYCGTWDELTSNLVFGGGTKLTVL
B2: C0020187 recombinant human IgG1 (antibody, V domains shown)
VH: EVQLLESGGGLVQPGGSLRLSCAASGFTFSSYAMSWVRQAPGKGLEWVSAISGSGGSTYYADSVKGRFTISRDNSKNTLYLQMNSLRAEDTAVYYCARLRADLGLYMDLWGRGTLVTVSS
VL: B1 VL with T56P, A57S, V59I, E94S, L95S, T96L, N98A
B3: C0021158-fgl2 recombinant human IgG1 (antibody, V domains shown)
VH: B1 VH
VL: B1 VL with S53A, V59I
B4: C0020065 recombinant human IgG1 (antibody, V domains shown)
VH: GVNLRESGGGVVQPGRSLRLSCAASGFTFSSYAMHWVRQAPGKGLEWVAVISYDGSNKYYVDSVKGRFTISRDNSKNTLYLQMNSLRAEDTAVYYCARDSSQLWFDYWGRGTLVTVSS
VL: QSVVTQPPSVSGAPGQRVTISCTGSSSNIGTGYDVHWYQQLPGTAPKLLIYGNSNRPSGVPDRFSGSKSGTSASLAITGLQAEDEADYYCQSYDSSLSGSVVFGGGTQLTVL
B5: C0021144 Fab (Fab, V domains shown)
VH: B1 VH with E32D, V33Y, A34H, A35V, P54S, I55G, P56G, K57S, G58T
VL: B1 VL with I20V, Y33H, N52T, S53T, E54V, R55L, T56S, A57S
notes: Human Fab
B6: C0021180 Fab (Fab, V domains shown)
VH: B1 VH
VL: QSVLTQPPTVSAAPGRKVTISCSGSSSNIGDHHVSWYQQLPGAAPKLLIYDTDHMASGIPDRFSGSRSGTSATLGITGLQTGDEADYYCGTWDSSLSALVFGGGTKLTVL
notes: Human Fab
B7: C0021177 Fab (Fab, V domains shown)
VH: B1 VH with I55A
VL: B1 VL with V3E, S9T, V10A, N52T, S53T, E54V, R55L, T56S, A57S, V59I
notes: Human Fab
B8: C0021181 Fab (Fab, V domains shown)
VH: EVQLLESGGGLVRPGGSLRLSCAASEFTFRYDYHVWVRQAPGKGLEWVSAISGSGGSTYYADSVKSRFTISRDNSKNTLYLQMNSLRAEDTAVYYCARLRADLGLYMDLWGRGTLVTVSS
VL: B1 VL with T19A, I20V, N31S, A57S, V59I, K106R
notes: Human Fab
B9: C0021158 Fab (Fab, V domains shown)
VH: B1 VH
VL: B1 VL
notes: Human Fab
B10: C0021155 Fab (Fab, V domains shown)
VH: B8 VH with R13Q, A23E, E26G, S63P, S66G
VL: B1 VL with Q1R, N52T, S53T, E54V, R55L, T56S, A57S, V59I, K106R
notes: Human Fab
B11: C0020065 scFv (scFv, V domains shown)
VH: B4 VH
VL: B4 VL
notes: c-myc tagged scFv

Target: T1, THP-1 lysate derived human trimeric ARG2
Assay: cell-based or functional assay

THP-1 lysate ARG2 EIA IC50 [nM] | Binder
5.36 | B1

Target: T2, recombinant human trimeric ARG2 enzyme …
Assay: cell-based or functional assay

EC50, In Presence of rhARG2 (T cell proliferation) [nM] | Maximum % Proliferation, In Presence of rhARG2 [%] | Binder
157 | 90 | B1

Target: T1, THP-1 lysate derived human trimeric ARG2
Assay: cell-based or functional assay
Remark: another data set of the same source

THP-1 ARG2 EIA IC50 [nM] | Binder
649 | B2
2.3 | B1
3 | B3

Target: T3, recombinant human monomeric ARG2
Assay: cell-based or functional assay

IC50 (read off the curve) [nM] | Binder
~4 | B2
~6 | B4

Target: T4, biotinylated recombinant human trimeric …
Assay: BLI (OctetRED), His-tagged ligand on anti-His surface

binding result | Binder
no binding (tested: up to 120 nM Fab) | B5
no binding (tested: up to 120 nM Fab) | B6
no binding (tested: up to 120 nM Fab) | B7
no binding (tested: up to 120 nM Fab) | B8
no binding (tested: up to 120 nM Fab) | B9
no binding (tested: up to 120 nM Fab) | B10

Target: T5, biotinylated recombinant human trimeric …
Assay: BLI (OctetRED) extended assay, bio-ARG2 on streptavidin, Fab as analyte, 1:1 fit
Method: (§1) The affinities of the second-generation antibodies to human ARG2 were measured on the OctetRED system. A screening assay which stably captures His-tagged ARG2 as the ligand on an anti-His surface was utilised to screen the second-generation candidates as Fabs at an analyte range of 1.8 to 120 nM, with an association time of 5 minutes and a dissociation time of 10 minutes. Sensors were regenerated using 10 mM glycine pH 1.5 after each cycle. Based on this assay, six candidates with estimated affinities in the sub-nanomolar range were identified, and they were further profiled using an extended assay which is more suitable for antibodies of high affinities. In the extended assay, the association and dissociation times were extended to 10 and 40 minutes respectively, using a lower Fab analyte titration range of 0.47 to 30 nM, on a streptavidin surface which captures bio-ARG2 as the ligand. The sensorgrams were reference subtracted and fitted to the 1:1 binding model to estimate their binding affinities using the Octet analysis software.

Kd [nM] | koff [s⁻¹] | kon [M⁻¹ s⁻¹] | Binder
0.338 | 6.59e-05 | 195000 | B5
0.437 | 0.000122 | 278000 | B6
0.173 | 3.51e-05 | 202000 | B7
0.288 | 4.17e-05 | 145000 | B8
0.173 | 4.54e-05 | 262000 | B9
0.358 | 5.67e-05 | 159000 | B10

Target: T4, biotinylated recombinant human trimeric …
Assay: HTRF direct binding assay, biotinylated recombinant human trimeric ARG1

binding result | Binder
no binding (tested: log M -6 (1e-6 M)) | B11

Target: T6, biotinylated recombinant cynomolgus …
Assay: BLI (OctetRED) extended assay, biotinylated cyno ARG2 on streptavidin, Fab as analyte, 1:1 fit
Method: as §1
The affinities of some of these antibodies to cynomolgus ARG2 were determined using the same assay, and the derived kinetic parameters are shown in Table 21.

Kd [nM] | koff [s⁻¹] | kon [M⁻¹ s⁻¹] | Binder
0.353 | 0.000135 | 381000 | B6
0.0754 | 3.12e-05 | 414000 | B7
0.173 | 4.43e-05 | 257000 | B8
0.108 | 4.64e-05 | 429000 | B9

Target: T6, biotinylated recombinant cynomolgus …
Assay: HTRF direct binding assay, biotinylated recombinant cynomolgus trimeric ARG2, streptavidin cryptate and anti-c-myc-XL665, Delta F %

binding result | Binder
binds | B11
